Experimental data from the supplement of paper PMC9112550, “Optimization of the antimicrobial peptide Bac7 by deep mutational scanning” (BMC Biology, 2022).

tested on: Escherichia coli TOP10; test: shrunken log2 fold change of peptide-encoding DNA abundance (4.5 h post-induction vs induction); higher = less antimicrobial activity (less host growth inhibition); conditions: time post-induction: 4.5 h; library: site-saturation at positions 5, 18, 19, 20
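Also: peptides expressed intracellularly from a pBAD plasmid library in pooled LB shake-flask culture, induced with 0.3% L-arabinose, DNA abundance read by NGS, three biological replicates, DESeq2 with apeglm shrinkage.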

Sequence	shrunken log2 fold change
RRIRMRPPRLPRPRPRPIIIPRP	-0.166
RRIRMRPPRLPRPRPRPIIWPRP	-0.0321
RRIRMRPPRLPRPRPRPIKFPRP	-0.5
RRIRMRPPRLPRPRPRPIKHPRP	-0.0825
RRIRMRPPRLPRPRPRPIKSPRP	-0.0237
RRIRMRPPRLPRPRPRPILYPRP	-0.0871
RRIRMRPPRLPRPRPRPIMCPRP	-0.19
RRIRMRPPRLPRPRPRPIMEPRP	-0.00133
RRIRMRPPRLPRPRPRPIMFPRP	-0.103
RRIRMRPPRLPRPRPRPIMKPRP	-0.24
RRIRMRPPRLPRPRPRPIQAPRP	0.295
RRIRMRPPRLPRPRPRPIQNPRP	-0.157
RRIRMRPPRLPRPRPRPIQSPRP	0.00351
RRIRMRPPRLPRPRPRPISCPRP	-0.0229
RRIRMRPPRLPRPRPRPISPPRP	0.0263
RRIRMRPPRLPRPRPRPITMPRP	0.0833
RRIRMRPPRLPRPRPRPITSPRP	0.0639
RRIRMRPPRLPRPRPRPIYWPRP	-0.0918
RRIRMRPPRLPRPRPRPKCNPRP	0.159
RRIRMRPPRLPRPRPRPKDDPRP	2.12
RRIRMRPPRLPRPRPRPKDFPRP	-0.025
RRIRMRPPRLPRPRPRPKDRPRP	1.87
RRIRMRPPRLPRPRPRPKFAPRP	0.51
RRIRMRPPRLPRPRPRPKGGPRP	0.115
RRIRMRPPRLPRPRPRPKGWPRP	1.75

Sequence	shrunken log2 fold change
RRIRMRPPRLPRPRPRPKHMPRP	0.171
RRIRMRPPRLPRPRPRPKHQPRP	0.634
RRIRMRPPRLPRPRPRPKHVPRP	0.0503
RRIRMRPPRLPRPRPRPKILPRP	0.289
RRIRMRPPRLPRPRPRPKKIPRP	0.599
RRIRMRPPRLPRPRPRPKKYPRP	1.26
RRIRMRPPRLPRPRPRPKLWPRP	1.41
RRIRMRPPRLPRPRPRPKMSPRP	0.123
RRIRMRPPRLPRPRPRPKMVPRP	2.27
RRIRMRPPRLPRPRPRPKNDPRP	1.05
RRIRMRPPRLPRPRPRPKQGPRP	-0.000896
RRIRMRPPRLPRPRPRPKRSPRP	2.25
RRIRMRPPRLPRPRPRPKSNPRP	0.815
RRIRMRPPRLPRPRPRPKSVPRP	0.0926
RRIRMRPPRLPRPRPRPKSWPRP	1.11
RRIRMRPPRLPRPRPRPKTKPRP	0.557
RRIRMRPPRLPRPRPRPKWSPRP	0.894
RRIRMRPPRLPRPRPRPKYDPRP	0.114
RRIRMRPPRLPRPRPRPKYNPRP	-0.446
RRIRMRPPRLPRPRPRPKYYPRP	-0.0662
RRIRMRPPRLPRPRPRPLADPRP	3.11
RRIRMRPPRLPRPRPRPLAGPRP	0.468
RRIRMRPPRLPRPRPRPLATPRP	2.2
RRIRMRPPRLPRPRPRPLAYPRP	-0.093
RRIRMRPPRLPRPRPRPLCLPRP	-0.0538

Sequence	shrunken log2 fold change
RRIRMRPPRLPRPRPRPLCNPRP	0.0857
RRIRMRPPRLPRPRPRPLCVPRP	0.361
RRIRMRPPRLPRPRPRPLDAPRP	1.74
RRIRMRPPRLPRPRPRPLEAPRP	2.46
RRIRMRPPRLPRPRPRPLEWPRP	0.31
RRIRMRPPRLPRPRPRPLHLPRP	-0.254
RRIRMRPPRLPRPRPRPLIFPRP	-0.139
RRIRMRPPRLPRPRPRPLIRPRP	-0.373
RRIRMRPPRLPRPRPRPLKQPRP	0.513
RRIRMRPPRLPRPRPRPLMQPRP	0.29
RRIRMRPPRLPRPRPRPLMRPRP	1.16
RRIRMRPPRLPRPRPRPLNLPRP	-0.0841
RRIRMRPPRLPRPRPRPLNSPRP	-0.0401
RRIRMRPPRLPRPRPRPLPDPRP	2.49
RRIRMRPPRLPRPRPRPLQKPRP	1.02
RRIRMRPPRLPRPRPRPLQYPRP	-0.106
RRIRMRPPRLPRPRPRPLRMPRP	1.88
RRIRMRPPRLPRPRPRPLRTPRP	3.45
RRIRMRPPRLPRPRPRPLSTPRP	0.0164
RRIRMRPPRLPRPRPRPLTQPRP	0.175
RRIRMRPPRLPRPRPRPLVNPRP	0.0639
RRIRMRPPRLPRPRPRPLVTPRP	-0.107
RRIRMRPPRLPRPRPRPLYFPRP	-0.302
RRIRMRPPRLPRPRPRPLYSPRP	-1.32
RRIRMRPPRLPRPRPRPMAIPRP	0.227
